# Assay results reported in US20230227572A1 (HEFEI TG IMMUNOPHARMA, published 2023).
# Residue numbers refer to the chain shown, from its start. Names and notes keep the numbering of the source.
# T1: human PVRIG protein on the cell membrane surface (human, UniProt Q6DKI7 41-326)
# T1 construct: Also used here for the natural PVRIG on NKG cells and human lymphocytes; also called 293T-human PVRIG cell line; PVRIG on NKG cell line
# T1 sequence: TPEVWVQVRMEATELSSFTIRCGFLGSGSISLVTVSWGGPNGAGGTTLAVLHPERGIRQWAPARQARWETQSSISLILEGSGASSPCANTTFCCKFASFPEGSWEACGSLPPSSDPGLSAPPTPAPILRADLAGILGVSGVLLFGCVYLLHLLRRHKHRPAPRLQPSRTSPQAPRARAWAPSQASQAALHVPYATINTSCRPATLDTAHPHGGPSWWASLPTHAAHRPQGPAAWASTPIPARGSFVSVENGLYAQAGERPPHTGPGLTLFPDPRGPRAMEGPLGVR
# B1: Antibody 2 (antibody, V domains shown)
# VH: QVQLQQSGAELTKPGASVKISCKATGYTFSTFAIDWIKQRPGHGLAWIGEILPGGNNTNYNEKFKGKATFTADTSSNTAYMHLSSLTSEDSAVYYCSTYWFAYWGQGTLVTVSA
# VL: DIVMTQSPSSLSVSAGEKVTMSCKSSQSLLNSGNQKNYLAWYQQKPGQPPKLLMYGASTRESGVPDRFTGSGSGTDFTLTISSVQAEDLAVYYCQNAHSYPPAFGAGTKLELK
# notes: Murine monoclonal antibody from hybridoma ascites; also called murine antibody Antibody 2
# B2: Antibody 1 (antibody, V domains shown)
# VH: B1 VH with T12M, H43P, G55I
# VL: B1 VL with S22T, A103T
# notes: Murine monoclonal antibody from hybridoma ascites, purified on Protein G; also called murine antibody Antibody 1
# B3: Antibody 4-hu4 (antibody, human IgG4 S228P, kappa, V domains shown)
# VH: EVQLVQSGAEVKKPGSSVKVSCKASGGTFSSFSIEWVRQAPGQGLEWIGEILPGSNSTNYNEKFKGRVTFTADESTSTAYMELSSLRSEDTAVYYCSSYWFAYWGQGTLVTVSS
# VL: DIVMTQSPDSLAVSLGERATINCKSSQSLLNSGNQKNYLAWYQQKPGQPPKLLIYGASTRESGVPDRFSGSGSGTDFTLTISSLQAEDVAVYYCQNAHSYPPTFGQGTKLEIKR
# notes: Humanized Antibody 4; heavy chain IgG4 with S228P already in the entry
# B4: Antibody 4-hu10 (antibody, human IgG4 S228P, kappa, V domains shown)
# VH: B3 VH with G27Y, E74T, S77N
# VL: B3 VL
# notes: as for B3
# B5: Antibody 4-hu7 (antibody, human IgG4 S228P, kappa, V domains shown)
# VH: B3 VH with G27Y, I48M, F70I
# VL: B3 VL
# notes: as for B3
# B6: Antibody 4-hu1 (antibody, human IgG4 S228P, kappa, V domains shown)
# VH: B3 VH with I48M, F70I, S97A, S98R
# VL: B3 VL
# notes: as for B3
# B7: Antibody 4-hu5 (antibody, human IgG4 S228P, kappa, V domains shown)
# VH: B3 VH with E74T, S77N
# VL: B3 VL
# notes: as for B3
# B8: Antibody 4-hu6 (antibody, human IgG4 S228P, kappa, V domains shown)
# VH: B3 VH with R67K, V68A, E74T, S77N
# VL: B3 VL
# notes: Humanized Antibody 4; heavy chain IgG4 with S228P already in the entry; also called Antibody 4-hub [sic]
# B9: Antibody 4-hu11 (antibody, human IgG4 S228P, kappa, V domains shown)
# VH: B3 VH with G27Y, R67K, V68A, E74T, S77N
# VL: B3 VL
# notes: as for B3
# B10: Antibody 4-hu8 (antibody, human IgG4 S228P, kappa, V domains shown)
# VH: B3 VH with G27Y, I48M
# VL: B3 VL
# notes: as for B8
# B11: Antibody 4-hu3 (antibody, human IgG4 S228P, kappa, V domains shown)
# VH: B3 VH with I48M
# VL: B3 VL
# notes: as for B3
# B12: Antibody 4-hu2 (antibody, human IgG4 S228P, kappa, V domains shown)
# VH: B3 VH with I48M, F70I
# VL: B3 VL
# notes: as for B3
# B13: Antibody 3 (antibody, V domains shown)
# VH: EVQLQQSGPELVKPGASMKISCKASGYSFTAYTMNWVKQSHGKNLEWIGLINPYNGGTSYNQKFKGKATLTGDKSSSTAYMELLSVTSEDSAVYFCAREGNYYGSRGDFDYWGQGTTLTVSS
# VL: DILLTQSPAILSVSPGERVSFSCRASQTIVTNILWYQQRTNGSPRLLIRYASESISGIPSRFSGSGSGTDFTLSINSVESEDIAHYYCQQSHSWPFTFGSGTKLEIK
# notes: Murine monoclonal antibody from hybridoma ascites; also called murine antibody Antibody 3
# Molecular target: T2, recombinant human PVRIG-human IgG1 Fc fusion protein (human)
# T2 construct: no linker is told; also called human PVRIG-Fc fusion protein
# Assay: SPR (Biacore), human PVRIG-human IgG1 Fc on chip, antibody in flow, 1:1 model
# Protocol: The binding kinetics and dissociation equilibrium constant (KD) of the antibodies of the present disclosure to human PVRIG were determined using the surface plasmon resonance (Biacore) assay. Briefly, a CMS chip was coated with human PVRIG-human IgG1 Fc fusion protein, and after being blocked, antibody solutions of different concentrations passed through the CMS chip at a fixed flow rate and bound to antigen for 2 min, followed by transfer to dissociation buffer for 6 min for determination of the dissociation rate. The kinetics were analyzed using a 1:1 binding model.
Kd,koff,kon,Binder
1.51 nM,0.000137 s⁻¹,90500 M⁻¹ s⁻¹,B1
0.316 nM,4.19e-05 s⁻¹,133000 M⁻¹ s⁻¹,B2
0.236 nM,4.44e-05 s⁻¹,188000 M⁻¹ s⁻¹,B3
≤ 0.004 nM,≤ 1e-06 s⁻¹,250000 M⁻¹ s⁻¹,B4
≤ 0.00361 nM,≤ 1e-06 s⁻¹,277000 M⁻¹ s⁻¹,B5
0.118 nM,2.32e-05 s⁻¹,197000 M⁻¹ s⁻¹,B6
0.015 nM,3.54e-06 s⁻¹,236000 M⁻¹ s⁻¹,B7
≤ 0.00356 nM,≤ 1e-06 s⁻¹,281000 M⁻¹ s⁻¹,B8
≤ 0.00422 nM,≤ 1e-06 s⁻¹,237000 M⁻¹ s⁻¹,B9
≤ 0.00505 nM,≤ 1e-06 s⁻¹,198000 M⁻¹ s⁻¹,B10
0.0916 nM,1.95e-05 s⁻¹,212000 M⁻¹ s⁻¹,B11
0.239 nM,6.38e-05 s⁻¹,266000 M⁻¹ s⁻¹,B12
0.99 nM,8.82e-05 s⁻¹,89100 M⁻¹ s⁻¹,B13

# Molecular target: T1, human PVRIG protein on the cell …
# Assay: flow cytometry on 293T-human PVRIG cells, AF647 goat anti-mouse IgG, percent positive cells
# Protocol: The activity of murine antibodies from different clones in binding to human PVRIG protein on the cell membrane surface was evaluated by flow cytometry. The experimental procedure was as follows:
# The 293T-human PVRIG cell line was harvested, washed with 1×PBS and resuspended, the cells were counted. Then […] were placed into each 1.5 ml Ep tube, the respective murine antibody (Antibody 1, Antibody 2, Antibody 3, or Antibody 4) was added at different concentrations, the mixture was incubated at 4° C. for 30 min, then washed with 1×PBS, and centrifuged at 3,500 rpm for 5 min to harvest the cells. The cell pellet was resuspended in 100 μl of 1×PBS, a AF647-labeled goat anti-mouse IgG antibody (available from Biolegend) was added, the mixture was incubated at 4° C. for 30 min in the dark, followed by washing twice with 1×PBS and harvesting the cells by centrifugation at 3,500 rpm for 5 min. The cell pellet was resuspended with 200 μl of 1×PBS and measured using a flow cytometer (BD LSR II).
row,EC50 (read off the curve),Binder
1,~0.03 µg/mL,B1
2,~0.02 µg/mL,B2
3,~0.1 µg/mL,B13

# Molecular target: T1, human PVRIG protein on the cell …
# Assay: flow cytometry on 293T-human PVRIG cells, AF647 mouse anti-human IgG-Fc, percent positive cells
# Protocol: The activity of the humanized antibodies in binding to human PVRIG was evaluated by flow cytometry in the experiment.
# The 293T-human PVRIG cell line was harvested, and washed and resuspended with 1×PBS to count the cells. Then 2×10^5 cells were placed into each 1.5 ml Ep tube, the respective humanized antibody was added at different concentrations, the mixture was incubated at 4° C. for 30 min, then washed with 1×PBS, and centrifuged at 3,500 rpm for 5 min to harvest the cells. The cell pellet was resuspended in 100 μl of 1×PBS, a AF647-labeled mouse anti-human IgG-Fc antibody (available from Biolegend) was added, the mixture was incubated at 4° C. for 30 min in the dark, followed by washing twice with 1×PBS and harvesting the cells by centrifugation at 3,500 rpm for 5 min. The cell pellet was resuspended with 200 μl of 1×PBS and measured using a flow cytometer (BD LSR II), and the analysis statistical results were shown in FIG. 16. It can be seen that all the humanized antibodies were ablet to specifically bind to the human PVRIG protein on the cell membrane surface.
row,EC50 (read off the curve),Binder
1,~20 ng/mL,B3
2,~0.5 ng/mL,B4
3,~3 ng/mL,B9
4,~1 ng/mL,B10

# Molecular target: T2, recombinant human PVRIG-human IgG1 Fc …
# Assay: ELISA, plate coated with human PVRIG-human IgG1 Fc at 1.0 µg/ml, HRP goat anti-mouse IgG, OD450
# Protocol: The activity of the murine antibodies from different clones in binding to the human PVRIG-Fc fusion protein was evaluated by ELISA. The experimental procedure was as follows:
# The recombinant human PVRIG-human IgG1 Fc fusion protein was diluted to 1.0 μg/ml in 1×PBS (phosphate buffer), the dilution was plated onto a 96-well ELISA plate overnight at 4° C. by 100 μl/well, the plate was washed 3 times with PBST (0.05% Tween20-PBS) and blocked with 1% BSA, followed by incubation at 37° C. for 2 h. The plate was washed 3 times with PBST, and murine antibodies (Antibody 1, Antibody 2, Antibody 3, or Antibody 4) diluted in multiple ratios were respectively added to set 8 concentrations, and the mixture was incubated at 37° C. for 1 h using mouse IgG1 (available from Biolegend) as a negative control at 100 μl/well. The plate was washed 3 times with PBST, and 100 μl of horseradish peroxidase (HRP)-labeled goat anti-mouse IgG antibody (available from BOSTER, 1:10,000 dilution) was added to each well, and the mixture was incubated at 37° C. for 1 h. After washing, 100 μl of TMB substrate solution was added to each well for developing for 10 to 15 min in the dark, 100 μl of stop solution (2M H2SO4) was added to each well, the solution was measured with a microplate reader immediately after the reaction stopped, and the absorbance at 450 nm (OD450) was read.
# Target sequence in this assay (chain, as listed by the source limits assumed): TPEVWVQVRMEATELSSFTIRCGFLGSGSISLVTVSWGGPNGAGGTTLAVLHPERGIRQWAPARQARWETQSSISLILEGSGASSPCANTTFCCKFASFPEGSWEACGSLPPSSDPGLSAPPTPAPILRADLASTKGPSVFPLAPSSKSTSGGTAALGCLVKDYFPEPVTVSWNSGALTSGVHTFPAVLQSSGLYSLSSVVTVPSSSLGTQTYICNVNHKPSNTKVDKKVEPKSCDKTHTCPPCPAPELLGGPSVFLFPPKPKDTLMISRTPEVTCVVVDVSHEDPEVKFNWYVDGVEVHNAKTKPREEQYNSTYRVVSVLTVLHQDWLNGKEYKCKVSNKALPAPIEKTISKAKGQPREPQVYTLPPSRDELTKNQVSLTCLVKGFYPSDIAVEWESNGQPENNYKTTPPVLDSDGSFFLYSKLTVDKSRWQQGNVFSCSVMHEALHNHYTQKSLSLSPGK
row,EC50 (read off the curve),Binder
1,~0.03 µg/mL,B1
2,~0.02 µg/mL,B2
3,~0.02 µg/mL,B13
